The results in this text go back to PMC11741606 (2025).

What all share (test): SPR
The target in assay [1] is horse aminopeptidase N ectodomain fused with the Fc domain of human IgG (horse (Equus caballus)).
The target in assay [2] is Arabian camel aminopeptidase N ectodomain fused with the Fc domain of human IgG (Arabian camel (Camelus dromedarius)).
Assay [3] concerns the target giant panda aminopeptidase N ectodomain fused with the Fc domain of human IgG (giant panda (Ailuropoda melanoleuca)).
Assay [4] addresses red fox aminopeptidase N ectodomain fused with the Fc domain of human IgG (red fox (Vulpes vulpes)).
For assay [5], the target named is T1, dAPN-H751R ectodomain, hFc-tagged (dog (Canis lupus familiaris), UniProt P79143 33-975, H751R).
T1 sequence: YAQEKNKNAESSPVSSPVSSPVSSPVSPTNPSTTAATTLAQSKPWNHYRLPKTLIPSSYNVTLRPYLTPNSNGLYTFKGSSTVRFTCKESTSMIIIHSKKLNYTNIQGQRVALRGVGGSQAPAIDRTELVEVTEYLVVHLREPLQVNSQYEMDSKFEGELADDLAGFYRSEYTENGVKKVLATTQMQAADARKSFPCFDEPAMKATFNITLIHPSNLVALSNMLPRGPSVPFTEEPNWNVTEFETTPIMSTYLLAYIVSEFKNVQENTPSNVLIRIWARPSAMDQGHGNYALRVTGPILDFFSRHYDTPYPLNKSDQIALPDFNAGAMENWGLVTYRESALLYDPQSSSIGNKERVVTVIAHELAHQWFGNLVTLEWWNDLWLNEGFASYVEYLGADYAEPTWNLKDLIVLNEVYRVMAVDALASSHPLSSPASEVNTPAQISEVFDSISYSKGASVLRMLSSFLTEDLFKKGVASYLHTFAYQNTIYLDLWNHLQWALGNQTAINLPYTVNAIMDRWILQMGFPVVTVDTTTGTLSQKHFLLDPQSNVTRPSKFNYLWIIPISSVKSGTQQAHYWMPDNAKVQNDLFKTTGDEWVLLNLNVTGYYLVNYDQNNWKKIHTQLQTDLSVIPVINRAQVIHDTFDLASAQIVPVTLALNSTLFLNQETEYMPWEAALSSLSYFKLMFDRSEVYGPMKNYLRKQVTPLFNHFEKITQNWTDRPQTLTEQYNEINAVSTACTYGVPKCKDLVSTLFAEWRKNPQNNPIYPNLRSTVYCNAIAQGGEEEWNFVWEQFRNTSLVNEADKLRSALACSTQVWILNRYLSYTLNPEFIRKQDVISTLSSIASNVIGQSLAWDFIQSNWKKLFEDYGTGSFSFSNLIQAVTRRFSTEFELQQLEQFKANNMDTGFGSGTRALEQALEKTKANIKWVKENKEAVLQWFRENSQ

Assay [6] addresses T2, dAPN-D750E ectodomain, hFc-tagged (dog (Canis lupus familiaris), UniProt P79143 33-975, D750E).
T2 sequence: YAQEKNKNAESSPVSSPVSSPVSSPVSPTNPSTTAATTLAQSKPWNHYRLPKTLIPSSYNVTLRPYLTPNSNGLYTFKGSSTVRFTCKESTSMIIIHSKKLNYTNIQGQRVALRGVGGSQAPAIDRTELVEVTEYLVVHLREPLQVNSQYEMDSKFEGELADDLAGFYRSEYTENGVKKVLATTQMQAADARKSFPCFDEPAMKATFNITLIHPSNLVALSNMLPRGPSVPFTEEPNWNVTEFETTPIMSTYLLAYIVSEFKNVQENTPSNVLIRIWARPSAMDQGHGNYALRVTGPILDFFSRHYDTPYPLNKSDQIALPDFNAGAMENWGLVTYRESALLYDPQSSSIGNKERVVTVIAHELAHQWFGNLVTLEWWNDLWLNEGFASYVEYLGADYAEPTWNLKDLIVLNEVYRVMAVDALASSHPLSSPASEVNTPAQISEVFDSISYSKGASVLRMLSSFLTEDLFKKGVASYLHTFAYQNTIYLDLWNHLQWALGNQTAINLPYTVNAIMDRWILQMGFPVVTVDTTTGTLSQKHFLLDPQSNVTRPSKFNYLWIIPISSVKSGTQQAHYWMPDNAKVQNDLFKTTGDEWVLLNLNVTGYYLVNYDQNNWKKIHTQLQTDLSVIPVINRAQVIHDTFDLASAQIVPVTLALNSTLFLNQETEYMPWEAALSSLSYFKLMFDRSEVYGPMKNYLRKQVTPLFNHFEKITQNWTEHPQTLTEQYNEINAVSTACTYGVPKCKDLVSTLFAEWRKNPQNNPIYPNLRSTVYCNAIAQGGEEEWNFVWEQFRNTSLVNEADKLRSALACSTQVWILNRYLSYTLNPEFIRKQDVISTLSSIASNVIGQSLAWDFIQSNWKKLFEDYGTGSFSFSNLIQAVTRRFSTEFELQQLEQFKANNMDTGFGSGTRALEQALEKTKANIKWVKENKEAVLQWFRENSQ

B1: TGEV RBD (receptor-binding domain of the transmissible gastroenteritis coronavirus spike protein) (domain or fragment)
chain: TANLNNGFYPVSSSEVGLVNKSVVLLPSFYTHTIVNITIDLGMKRSGYGQPIASTLSNITLPMQDNNTDVYCIRSDQFSVYVHSTCKSSLWDNIFKRNCTDVLDATAVIKTGTCPFSFDKLNNYLTFNKFCLSLSPVGANCKFDVAARTRTNEQVVRSLYVIYEEGDNIVGVPSD
Broadly, the Kd is the concentration at which binding is half-saturated. A lower Kd goes with tighter binding. Take B1: the dissociation constant (Kd) was 2350 nM in assay [1]; 6360 nM in assay [2]; 765 nM in assay [3]; 462 nM in assay [4]; 241 nM in assay [5]; 30.8 nM in assay [6].
